# Measured values taken from the supplement of paper PMC10567573.
# B1: TPD52L1 (parent)
# chain: ISKKFGDMSYSIRHSISMPAMRNS
# B2: TRIM63 (parent)
# chain: ANPYWTSRGSSVSMSGGRFRCPTC
# Variants of: B1
# Assay: protein stability index of a GFP-peptide fusion (GPS, HEK-293T) (PSI 1-6); higher = more stable
# Details: c terminus: a fixed tail appended
# 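Further: lentivirally expressed fusions sorted by FACS into six bins by GFP to DsRed ratio, PSI derived from sequencing read proportions per bin multiplied by bin number.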
row,Variant,protein stability index
1,IMKKFGDMSYSIRHSISMPAMRNS,1.75
2,IVKKFGDMSYSIRHSISMPAMRNS,2.34
3,ILKKFGDMSYSIRHSISMPAMRNS,2.97
4,ISKKFGDMSYSIRHSISMPAMRWS,2.39
5,ISKKFGDMSYSIRHSISMPAMRMS,2.05
6,ISKKFGDMSYSIRHSISMPAMRNR,2.67
7,ISKKFGDMSYSIRHSISMPAMRNY,1.77
8,ISKKFGDMSYSIRHSISMPAMRNP,2.33
9,ISKKFGDMSYSIRHSISMPAMRNQ,1.76
10,ISKKFGDMSYSIRHSISMPAMRND,2.61
11,ISKKFGDMSYKIRHSISMPAMRNS,1.99
12,ISKKFGDMSYWIRHSISMPAMRNS,1.67
13,ISKKFGDMSWSIRHSISMPAMRNS,1.93
14,ISKSFGDMSYSIRHSISMPAMRNS,2.71
15,ISKKFGDMSYSIRHSISMPEMRNS,2.58
16,ISKKFGDMSYSIRHSISMPWMRNS,2.13
17,ISKKFGDMSYSIRHSISMPNMRNS,2.58
18,ISKKFGDMSYSIRHRISMPAMRNS,2.24
19,ISKKFGDMSYSIRHLISMPAMRNS,1.83
20,ISKKFGDMSYSIRHGISMPAMRNS,2.38
21,ISKKFGDMSYSIRHTISMPAMRNS,1.88
22,ISKKFGDMSYSIRHSISYPAMRNS,1.87
23,ISKKFGDMWYSIRHSISMPAMRNS,2.69
24,ISKKFGDMSYSIRHSIEMPAMRNS,2.1
25,ISKKFGDMSYSIRHSILMPAMRNS,1.8
26,ISKKFGDMSYSIRHSIWMPAMRNS,1.27

row,Variant,protein stability index
1,ISKKFGDMSYSIRHSINMPAMRNS,2.25
2,FSKKFGDMSYSIRHSISMPAMRNS,1.88
3,ISKKFGDMSYSIYHSISMPAMRNS,1.45
4,ISKKFGDMSYSIFHSISMPAMRNS,2.01
5,ISKKFGDASYSIRHSISMPAMRNS,2.87
6,ISKKFGDPSYSIRHSISMPAMRNS,3.46
7,ISKKYGDMSYSIRHSISMPAMRNS,2.56
8,ISKKFGDMSYSIRHSESMPAMRNS,3.25
9,ISKKFGDMSYSIRHSHSMPAMRNS,2.36
10,ISKKFGDMSYSIRHSVSMPAMRNS,2.32
11,ISKKFGKMSYSIRHSISMPAMRNS,2.58
12,ISKKFGLMSYSIRHSISMPAMRNS,1.78
13,ISKKFGIMSYSIRHSISMPAMRNS,3.23
14,ISKKFGTMSYSIRHSISMPAMRNS,1.54
15,ISKKFGRMSYSIRHSISMPAMRNS,2.21
16,ISKKFGAMSYSIRHSISMPAMRNS,2.15
17,ISVKFGDMSYSIRHSISMPAMRNS,4.4
18,ISCKFGDMSYSIRHSISMPAMRNS,2.69
19,ISKKFADMSYSIRHSISMPAMRNS,1.65
20,ISKKFEDMSYSIRHSISMPAMRNS,2.31
21,ISKKFKDMSYSIRHSISMPAMRNS,1.74
22,ISKKFWDMSYSIRHSISMPAMRNS,2.38
23,ISKKFGDMSYSIRHSISMPAVRNS,2.53
24,ISKKFGDMSYSIRHSISMPAYRNS,2.46
25,ISKKFGDMSYSIRHSISMPAWRNS,2.79
26,ISKKFGDMSYSIRHSISMPAIRNS,2.39

# Variants of: B2
# Assay: as above
# Details: c terminus: a fixed tail appended
row,Variant,protein stability index
1,ANPYWTSRGSSVSMSGGRFRCQTC,2.87
2,ANPYWTSRGSSVSMSGGRFRCTTC,2.69
3,ANPYWTSRGSSVSMSGGRFRCITC,2.75
4,ANPYATSRGSSVSMSGGRFRCPTC,1.92
5,ANPYHTSRGSSVSMSGGRFRCPTC,2.17
6,ANPYNTSRGSSVSMSGGRFRCPTC,2.44
7,ANPYTTSRGSSVSMSGGRFRCPTC,1.76
8,ANPYETSRGSSVSMSGGRFRCPTC,2.25
9,ANPYCTSRGSSVSMSGGRFRCPTC,1.6
10,ANPYPTSRGSSVSMSGGRFRCPTC,2.44
11,ANPYDTSRGSSVSMSGGRFRCPTC,2.19
12,ANPYWTSRGSSVSPSGGRFRCPTC,2.64
13,ANPYWTSRGSSVSLSGGRFRCPTC,2.21
14,ANPYWTSRGSSVSGSGGRFRCPTC,1.83
15,ANPYWTSRGSSVSSSGGRFRCPTC,2.32
16,ANPYWTSRGSSVSMSGFRFRCPTC,1.72
17,ANPYWTSRGSSVSMSGMRFRCPTC,2.73
18,ANPYWTSRGSSVSMSGTRFRCPTC,1.17
19,ANPYWTSRGSSVSMSGWRFRCPTC,1.49
20,ANPYWTSRGSSVSMSGQRFRCPTC,2.07
21,ANPYWTSRGSSVSMSGDRFRCPTC,1.43
22,ANPYWTSRGSSVSMSGRRFRCPTC,2.65
23,ANPYWTSRGSSVSMSGERFRCPTC,1.7

row,Variant,protein stability index
1,ANPYWTSRGSSVSMSGGRFRCPKC,3.23
2,ANPYWTSRGSSVSMSGGRFRCPWC,2.47
3,ANPYWTSRGSSVSMSGGRFRCPPC,2.26
4,ANPYWTSRGSSVSMSGGRFRCPYC,1.75
5,ANPYWTSRGSSVSMSGGRFRCPRC,2.43
6,ANPYWTSRGSSVSMSGGRFRCPTN,2.66
7,ANPYWTSRGSSVSMSGGRFRCPTR,4.13
8,ANPYWTSRGSSVSMSGGRFRCPTV,2.3
9,ANPYWTSRGSSVSMSGGRFRCPTD,3.73
10,ANPYWTSRGSSVSMSGGRFRCPTH,2.29
11,ANPYWTSRGSSVSMSGGRFRCPTM,2.07
12,ANPYWTSRGSSVSMSGGRFRCPTS,2.88
13,ANPYWTSRGSSVSMSGGRFRCPTT,2.69
14,ANNYWTSRGSSVSMSGGRFRCPTC,1.07
15,ANIYWTSRGSSVSMSGGRFRCPTC,2.14
16,ANEYWTSRGSSVSMSGGRFRCPTC,1.91
17,ANQYWTSRGSSVSMSGGRFRCPTC,2.2
18,ANHYWTSRGSSVSMSGGRFRCPTC,2.82
19,ANMYWTSRGSSVSMSGGRFRCPTC,1.54
20,ANPYWTSRGSSVSMSYGRFRCPTC,2.24
21,ANPYWTSRGSSVSMSKGRFRCPTC,2.1
22,ANPYWTSRGSSVSMSNGRFRCPTC,1.34
23,ANPYWTSRGSSVSMSAGRFRCPTC,1.72

row,Variant,protein stability index
1,ANPYWTNRGSSVSMSGGRFRCPTC,1.37
2,ANPYWTDRGSSVSMSGGRFRCPTC,2.38
3,ANPYWTARGSSVSMSGGRFRCPTC,2.41
4,ANPYWTYRGSSVSMSGGRFRCPTC,1.54
5,ANPYWTIRGSSVSMSGGRFRCPTC,3.16
6,ANPYWTPRGSSVSMSGGRFRCPTC,1.27
7,ANPYWTLRGSSVSMSGGRFRCPTC,1.6
8,ANPYWTTRGSSVSMSGGRFRCPTC,1.58
9,ANPYWTVRGSSVSMSGGRFRCPTC,1.93
10,ANPYWTSRGSSVSMIGGRFRCPTC,1.4
11,ANPYWTSRGSSVSMTGGRFRCPTC,1.43
12,ANPYWTSRGSSVSMFGGRFRCPTC,2.61
13,ANPYWTSRGSSVSMEGGRFRCPTC,2.1
14,ANPYWTSRGSSVSMYGGRFRCPTC,1.57
15,ANPYWTSRGSSVSMPGGRFRCPTC,2.09
16,ANPYWTSDGSSVSMSGGRFRCPTC,1.91
17,ANPYWTSNGSSVSMSGGRFRCPTC,1.92
18,ANPYWTSTGSSVSMSGGRFRCPTC,1.8
19,ANPYWTSPGSSVSMSGGRFRCPTC,1.55
20,ANPYWTSLGSSVSMSGGRFRCPTC,2.33
21,ANPYWTSRGSSVSMSGGRCRCPTC,3.67
22,ANPYWTSRGSSVSMSGGRQRCPTC,2.19
23,ANPYWTSRGSSVSMSGGRNRCPTC,2.24

row,Variant,protein stability index
1,ANPYWTSRGSSVSMSGGRRRCPTC,2.51
2,ANPYWTSRGSSVSMSGGRFRMPTC,3.26
3,ANPYWTSRGSSVSMSGGRFRFPTC,1.76
4,ANPYWTSRGSSVSMSGGRFRGPTC,2.86
5,ANPYWTSRGSSVSMSGGRFRKPTC,2.97
6,ANPYWTSRGSSVSMSGGRFREPTC,3.46
7,ANPYWTSRGSSVSMSGGRFRWPTC,1.71
8,ANPYWTSRGSSVSMSGGRFRNPTC,2.77
9,ANPYWTSRGSSVSMSGGRFRVPTC,1.9
10,ANPYWTSRGSSVSMSGGRFECPTC,1.74
11,ANPYWTSRGSSVSMSGGRFLCPTC,1.51
12,ANPYWTSRGSSVSMSGGRFHCPTC,1.85
13,ANPYWTSRGSSVSMSGGRFQCPTC,1.84
14,NNPYWTSRGSSVSMSGGRFRCPTC,2.18
15,FNPYWTSRGSSVSMSGGRFRCPTC,2.58
16,HNPYWTSRGSSVSMSGGRFRCPTC,1.88
17,MNPYWTSRGSSVSMSGGRFRCPTC,2.07
18,TNPYWTSRGSSVSMSGGRFRCPTC,1.88
19,ANPYWTSRGPSVSMSGGRFRCPTC,1.75
20,ANPYWTSRGTSVSMSGGRFRCPTC,2.24
21,ANPYWTSRGFSVSMSGGRFRCPTC,2.56
22,ANPYWTSRGSSVSMSGGPFRCPTC,1.65
23,ANPYWTSRGSSVSMSGGFFRCPTC,1.46

row,Variant,protein stability index
1,ANPYWTSRGSSVSMSGGTFRCPTC,2.14
2,ANPYWTSRGSSVSMSGGGFRCPTC,1.44
3,ANPYWTSRGSSVSMSGGNFRCPTC,2.24
4,ANPYWTSRGSSVSMSGGEFRCPTC,2.48
5,ANPYWSSRGSSVSMSGGRFRCPTC,1.45
6,ANPYWQSRGSSVSMSGGRFRCPTC,3.06
7,ANPYWDSRGSSVSMSGGRFRCPTC,1.83
8,ANPYWHSRGSSVSMSGGRFRCPTC,2.12
9,ANPFWTSRGSSVSMSGGRFRCPTC,1.57
10,ANPIWTSRGSSVSMSGGRFRCPTC,2.8
11,ANPWWTSRGSSVSMSGGRFRCPTC,2.18
12,ANPEWTSRGSSVSMSGGRFRCPTC,2.1
13,ANPGWTSRGSSVSMSGGRFRCPTC,1.36
14,ANPSWTSRGSSVSMSGGRFRCPTC,1.65
15,ANPDWTSRGSSVSMSGGRFRCPTC,2.51
16,APPYWTSRGSSVSMSGGRFRCPTC,1.76
17,AMPYWTSRGSSVSMSGGRFRCPTC,1.6
18,AYPYWTSRGSSVSMSGGRFRCPTC,2.14
19,AIPYWTSRGSSVSMSGGRFRCPTC,3.56
20,ARPYWTSRGSSVSMSGGRFRCPTC,2.05
21,AQPYWTSRGSSVSMSGGRFRCPTC,1.23
22,AKPYWTSRGSSVSMSGGRFRCPTC,1.59
23,ANPYWTSRGSCVSMSGGRFRCPTC,1.88

row,Variant,protein stability index
1,ANPYWTSRGSQVSMSGGRFRCPTC,2.55
2,ANPYWTSRGSPVSMSGGRFRCPTC,2.14
3,ANPYWTSRGSAVSMSGGRFRCPTC,2.3
4,ANPYWTSRGSKVSMSGGRFRCPTC,1.29
5,ANPYWTSRGSLVSMSGGRFRCPTC,1.1
6,ANPYWTSRGSYVSMSGGRFRCPTC,1.8
7,ANPYWTSRGSVVSMSGGRFRCPTC,2.21
8,ANPYWTSRPSSVSMSGGRFRCPTC,1.76
9,ANPYWTSRESSVSMSGGRFRCPTC,1.6
10,ANPYWTSRNSSVSMSGGRFRCPTC,2.13
11,ANPYWTSRLSSVSMSGGRFRCPTC,1.56
12,ANPYWTSRSSSVSMSGGRFRCPTC,1.9
13,ANPYWTSRASSVSMSGGRFRCPTC,1.7
14,ANPYWTSRWSSVSMSGGRFRCPTC,1.43
15,ANPYWTSRGSSFSMSGGRFRCPTC,1.64
16,ANPYWTSRGSSHSMSGGRFRCPTC,1.98
17,ANPYWTSRGSSLSMSGGRFRCPTC,1.29
18,ANPYWTSRGSSRSMSGGRFRCPTC,1.32
19,ANPYWTSRGSSGSMSGGRFRCPTC,2.1
20,ANPYWTSRGSSVTMSGGRFRCPTC,1.83
21,ANPYWTSRGSSVKMSGGRFRCPTC,2.39
